Test results published in patent US20250281538A1 (US Dept. of Health and Human Services, published 2025).

T1: GPC2 antigen (UniProt Q8N158 24-553, limits assumed)
T1 construct: also called glypican-2
T1 sequence (looked up): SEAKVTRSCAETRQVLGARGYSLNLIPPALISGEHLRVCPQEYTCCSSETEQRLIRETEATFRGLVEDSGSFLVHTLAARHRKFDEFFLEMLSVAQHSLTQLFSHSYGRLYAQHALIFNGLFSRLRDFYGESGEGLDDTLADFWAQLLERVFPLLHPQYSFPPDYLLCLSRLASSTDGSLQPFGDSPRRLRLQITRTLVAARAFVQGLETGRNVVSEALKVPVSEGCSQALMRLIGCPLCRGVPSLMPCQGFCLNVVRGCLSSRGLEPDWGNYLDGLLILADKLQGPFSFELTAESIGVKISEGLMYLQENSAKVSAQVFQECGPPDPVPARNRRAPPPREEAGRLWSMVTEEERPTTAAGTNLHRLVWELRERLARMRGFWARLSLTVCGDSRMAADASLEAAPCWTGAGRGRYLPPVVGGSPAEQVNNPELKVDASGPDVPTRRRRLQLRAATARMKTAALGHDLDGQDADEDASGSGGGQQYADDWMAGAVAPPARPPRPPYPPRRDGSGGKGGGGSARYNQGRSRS

B1: CT3 CAR (CT3-CD28HTM) (other)
VH: EVQLQQSGPELVKPGASVKMSCKASRFTFTDYNIHWVKQSPGKTLEWIGYINPNNGDIFYKQKFNGKATLTINKSSNTAYMELRSLTSEDSAVYYCVRSSNIRYTFDRFFDVWGTGTTVTVSS
VL: ENVLTQSPAIMSASLGEKVTMSCRASSSVNYIYWYQQKSDASPKLWIYYTSNLAPGVPARFSGSGSGNSYSLTISSMEGEDAATYYCQQFSSSPSTFGTGTKLELK
notes: Only the CT3 VH and VL are tied to the antibody
B2: ART-CT3-CT3 AbTCR+CSR (other)
chain 1: ENVLTQSPAIMSASLGEKVTMSCRASSSVNYIYWYQQKSDASPKLWIYYTSNLAPGVPARFSGSGSGNSYSLTISSMEGEDAATYYCQQFSSSPSTFGTGTKLELKRSRGGGGSGGGGSGGGGSLEMAEVQLQQSGPELVKPGASVKMSCKASRFTFTDYNIHWVKQSPGKTLEWIGYINPNNGDIFYKQKFNGKATLTINKSSNTAYMELRSLTSEDSAVYYCVRSSNIRYTFDRFFDVWGTGTTVTVSSEQKLISEEDLAAATGAPPLGTQPDCNPTPENGEAPASTSPTQSLLVDSQASKTLPIPTSAPVALSSTGKPVLDAGPVLFWVILVLVVVVGSSAFLLCHRRACRKRIRQKLHLCYPVQTSQPKLELVDSRPRRSSTQLRSGASVTEPVAEERGLMSQPLMETCHSVGAAYLESLPLQDASPAGGPSSPRDLPEPRVSTEHTNNKIEKIYIMKADTVIVGTVKAELPEGRGLAGPAEPELEEELEADHTPHYPEQETEPPLGSCSDVMLSVEEEGKEDPLPTAASGK
chain 2: EVQLQQSGPELVKPGASVKMSCKASRFTFTDYNIHWVKQSPGKTLEWIGYINPNNGDIFYKQKFNGKATLTINKSSNTAYMELRSLTSEDSAVYYCVRSSNIRYTFDRFFDVWGTGTTVTVSSASTKGPSVFPLAPSSKSTSGGTAALGCLVKDYFPEPVTVSWNSGALTSGVHTFPAVLQSSGLYSLSSVVTVPSSSLGTQTYICNVNHKPSNTKVDKRVEPKSCEVKTDSTDHVKPKETENTKQPSKSCHKPKAIVHTEKVNMMSLTVLGLRMLFAKTVAVNFLLTAKLFFL
chain 3: ENVLTQSPAIMSASLGEKVTMSCRASSSVNYIYWYQQKSDASPKLWIYYTSNLAPGVPARFSGSGSGNSYSLTISSMEGEDAATYYCQQFSSSPSTFGTGTKLELKRTVAAPSVFIFPPSDEQLKSGTASVVCLLNNFYPREAKVQWKVDNALQSGNSQESVTEQDSKDSTYSLSSTLTLSKADYEKHKVYACEVTHQGLSSPVTKSFNRGECPIKTDVITMDPKDNCSKDANDTLLLQLTNTSAYYMYLLLLLKSVVYFAIITCCLLRRTAFCCNGEKS
notes: AbTCR heterodimer and CSR are expressed together on one cell
B3: ART-HN3-HN3 AbTCR+CSR (protein)
chain 1: QVQLVQSGGGLVQPGGSLRLSCAASYFDFDSYEMSWVRQAPGKGLEWIGSIYHSGSTYYNPSLKSRVTISRDNSKNTLYLQMNTLRAEDTATYYCARVNMDRFDYWGQGTLVTVSSEQKLISEEDLAAATGAPPLGTQPDCNPTPENGEAPASTSPTQSLLVDSQASKTLPIPTSAPVALSSTGKPVLDAGPVLFWVILVLVVVVGSSAFLLCHRRACRKRIRQKLHLCYPVQTSQPKLELVDSRPRRSSTQLRSGASVTEPVAEERGLMSQPLMETCHSVGAAYLESLPLQDASPAGGPSSPRDLPEPRVSTEHTNNKIEKIYIMKADTVIVGTVKAELPEGRGLAGPAEPELEEELEADHTPHYPEQETEPPLGSCSDVMLSVEEEGKEDPLPTAASGK
chain 2: QVQLVQSGGGLVQPGGSLRLSCAASYFDFDSYEMSWVRQAPGKGLEWIGSIYHSGSTYYNPSLKSRVTISRDNSKNTLYLQMNTLRAEDTATYYCARVNMDRFDYWGQGTLVTVSSASTKGPSVFPLAPSSKSTSGGTAALGCLVKDYFPEPVTVSWNSGALTSGVHTFPAVLQSSGLYSLSSVVTVPSSSLGTQTYICNVNHKPSNTKVDKRVEPKSCEVKTDSTDHVKPKETENTKQPSKSCHKPKAIVHTEKVNMMSLTVLGLRMLFAKTVAVNFLLTAKLFFL
chain 3: QVQLVQSGGGLVQPGGSLRLSCAASYFDFDSYEMSWVRQAPGKGLEWIGSIYHSGSTYYNPSLKSRVTISRDNSKNTLYLQMNTLRAEDTATYYCARVNMDRFDYWGQGTLVTVSSRTVAAPSVFIFPPSDEQLKSGTASVVCLLNNFYPREAKVQWKVDNALQSGNSQESVTEQDSKDSTYSLSSTLTLSKADYEKHKVYACEVTHQGLSSPVTKSFNRGECPIKTDVITMDPKDNCSKDANDTLLLQLTNTSAYYMYLLLLLKSVVYFAIITCCLLRRTAFCCNGEKS
B4: ART-hCT3-1-hCT3-1 AbTCR+CSR (other)
chain 1: DVVMTQSPLSLPVTPGEPASISCRASSSVNYIYWYLQKPGQSPQLWIYYTSNLAPGVPDRFSGSGSGTDFTLKISRVEAEDVGVYYCQQFSSSPSTFGQGTKLEIKRSRGGGGSGGGGSGGGGSLEMAQVQLVQSGAEVKKPGASVKVSCKASRFTFTDYNIHWVRQAPGQGLEWIGYINPNNGDIFYKQKFNGRVTLTADKSTSTAYMELSSLTSEDTAVYYCVRSSNIRYTFDRFFDVWGQGTLVTVSSEQKLISEEDLAAATGAPPLGTQPDCNPTPENGEAPASTSPTQSLLVDSQASKTLPIPTSAPVALSSTGKPVLDAGPVLFWVILVLVVVVGSSAFLLCHRRACRKRIRQKLHLCYPVQTSQPKLELVDSRPRRSSTQLRSGASVTEPVAEERGLMSQPLMETCHSVGAAYLESLPLQDASPAGGPSSPRDLPEPRVSTEHTNNKIEKIYIMKADTVIVGTVKAELPEGRGLAGPAEPELEEELEADHTPHYPEQETEPPLGSCSDVMLSVEEEGKEDPLPTAASGK
chain 2: QVQLVQSGAEVKKPGASVKVSCKASRFTFTDYNIHWVRQAPGQGLEWIGYINPNNGDIFYKQKFNGRVTLTADKSTSTAYMELSSLTSEDTAVYYCVRSSNIRYTFDRFFDVWGQGTLVTVSSASTKGPSVFPLAPSSKSTSGGTAALGCLVKDYFPEPVTVSWNSGALTSGVHTFPAVLQSSGLYSLSSVVTVPSSSLGTQTYICNVNHKPSNTKVDKRVEPKSCEVKTDSTDHVKPKETENTKQPSKSCHKPKAIVHTEKVNMMSLTVLGLRMLFAKTVAVNFLLTAKLFFL
chain 3: DVVMTQSPLSLPVTPGEPASISCRASSSVNYIYWYLQKPGQSPQLWIYYTSNLAPGVPDRFSGSGSGTDFTLKISRVEAEDVGVYYCQQFSSSPSTFGQGTKLEIKRTVAAPSVFIFPPSDEQLKSGTASVVCLLNNFYPREAKVQWKVDNALQSGNSQESVTEQDSKDSTYSLSSTLTLSKADYEKHKVYACEVTHQGLSSPVTKSFNRGECPIKTDVITMDPKDNCSKDANDTLLLQLTNTSAYYMYLLLLLKSVVYFAIITCCLLRRTAFCCNGEKS
notes: also called ART-hCT3-hCT3; hCT3 AbTCR+CSR
B5: hCT3 CAR (hCT3-1 CD28HTM) (other)
VH: QVQLVQSGAEVKKPGASVKVSCKASRFTFTDYNIHWVRQAPGQGLEWIGYINPNNGDIFYKQKFNGRVTLTADKSTSTAYMELSSLTSEDTAVYYCVRSSNIRYTFDRFFDVWGQGTLVTVSS
VL: DVVMTQSPLSLPVTPGEPASISCRASSSVNYIYWYLQKPGQSPQLWIYYTSNLAPGVPDRFSGSGSGTDFTLKISRVEAEDVGVYYCQQFSSSPSTFGQGTKLEIK
notes: only hCT3-1 VH and VL are tied to the antibody; also called hCT3-CD28HTM

What was measured:
GPC2 antigen = biological target: T1, GPC2 antigen; test: flow cytometry of Jurkat T cells expressing the construct, GPC2 binding read in the APC channel; GPC2 concentration not given
From the text: Shown in FIG. 12 is a flow cytometric analysis of Jurkat T cells expressing CT3 and hCT3 CARs (CT3-CD28HTM and hCT3-1 CD28HTM, respectively) and AbTCRs+CSRs (ART-CT3-CT3 and ART-hCT3-1-hCT3-1, respectively). T cells expressing each of the constructs were capable of binding to GPC2 antigen. Mock T cells not expressing a CAR or AbTCR+CSR were included as a negative control.

GPC3 protein [1] = biological target: GPC3 protein (UniProt P51654); test: flow cytometry of Jurkat T cells expressing the construct, stained with 2.3ng/ml (0.04nM) GPC3-hFc
GPC3 protein [2] = biological target: GPC3 protein (UniProt P51654); test: flow cytometry of Jurkat T cells expressing the construct, stained with 4.6ng/ml (0.08nM) GPC3-hFc

Binder | percent of cells in the GPC2-binding-positive gate (GPC2 antigen) | percent of cells in the binding-positive gate (GPC3 protein [1]) | percent of cells in the binding-positive gate (GPC3 protein [2])
B1 | 41.9% | – | –
B2 | 57.3% | – | –
B3 | – | 56.9% | 70.6%
B4 | 62.4% | – | –
B5 | 26.5% | – | –
